The source of these data is patent US11155643B2, “Glucan kinases and methods for processing starch using the same” (University of Kentucky Research Foundation, priority 2017, dated 2021).

Data set [1] has as its target T1, Cyanidioschyzon merolae Cm-GWD DUF domain (CmGWD DUF, amino acids 345-469; full length Cm-GWD SEQ ID NO: 2) (Cyanidioschyzon merolae, UniProt M1VD00).
T1 construct: recombinant, purified
T1 sequence (M1VD00 345-469): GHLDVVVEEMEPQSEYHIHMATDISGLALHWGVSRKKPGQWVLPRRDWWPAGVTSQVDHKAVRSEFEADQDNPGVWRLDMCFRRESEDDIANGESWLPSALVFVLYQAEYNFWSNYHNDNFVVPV
Nature of the data set: differential scanning fluorimetry (DSF)-based thermal shift assay, oligosaccharide binding. As for the experimental part: FIGS. 5A-C show graphs and images illustrating expression and thermal shift of various domains of the Cm-GWD. (A) is an image showing the expression of the Cm-GWD DUF domain constructs with varying N- and C-termini. (B) is an image showing the expression of individual N-terminal domains of Cm-GWD.
To characterize the enzymes' structure, the architecture of the dikinases was first analyzed. The sequences of the dikinases were analyzed using bioinformatic tools. The dikinase primary sequences from multiple species were analyzed to predict sequence conservation, secondary structure, regions of disorder, and regions of hydrophobicity in order to define the optimal constructs for recombinant protein expression of Cm-GWD. At-GWD and PWD have been reported to have cTP, one or two CBM domains, and a dikinase domain (FIG. 4). […]
The binding of purified proteins to oligosaccharides was measured using a differential scanning fluorimetry (DSF)-based thermal shift assay. […] As a proof of principle, the binding of the Cm-GWD DUF to the oligosaccharide maltohexaose and to maltose was measured, as a negative control. […] The change in Tm was monitored with increasing concentration of oligosaccharide (FIG. 5C). […]
On the technique in general: DSF heats the sample and reads unfolding from a dye or from intrinsic fluorescence.

The nature of data set [2]: cellulose phosphorylation assay (33P-β-ATP radio-label incorporation into cellulose). The format is biochemical. Conditions: FIG. 11C, 11D. As for the experimental part:
Next, it was tested whether phosphorylation could be directed towards cellulose, the most abundant polymer on earth, by building chimeras comprising cellulose-binding CBMs. Both the CBM30 and CBM44 were chosen from the cellulase CelJ of the thermophilic, gram-positive bacterium Clostridium thermocellum, which bind cellulose with high affinity. The engineered protein containing CtCBM30 and CtCBM44 was purified. The starch-phosphorylation assay was modified to develop an assay for measure phosphorylation of cellulose, which was obtained from Sigma-Avicel PH-101. To measure dikinase activity, the cellulose was incubated with the engineered chimeric dikinase in question along with ^33P-β-ATP, the ^33P-β-ATP and enzyme were washed out, and radio-label incorporation into the cellulose was measured.

Data set [3] in a line: stability of purified, concentrated protein on storage. The format is physicochemical. Conditions: 4° C., concentrated to 18 mg/ml. As to the method:
In addition, these constructs were purified using a 3-step purification scheme to sufficient purity for enzymatic assays (FIGS. 9B,D & 10A). Constructs that express each of the individual domains were identified, as well as constructs just lacking the cTP. Expression yields for these constructs ranged from 2-65 mg/1 L of E. coli using a 3-step purification. One of the most promising St-GWD constructs allowed the instant inventors to purify 60-65 mg of >95% pure St-GWD per liter of E. coli using a 3-step purification protocol (FIGS. 10A & 10B). Importantly, the purified protein was concentrated to 18 mg/ml and the protein was stable at 4° C. for >1 WEEK.

Data set [4] can be described thus: glucose release from native starch treated with combinations of amylases, dikinase and phosphatase. The format is biochemical, Arabidopsis. Conditions: for effect on glucose release when added to amylases: BAM3, ISA3, 25° C., 60 minutes, FIG. 7. As to the method: FIG. 7 includes a plot showing the glucose released for native Arabidopsis starch that was incubated at 25° C. for 60 minutes with combinations of amylases (BAM+ISA), dikinase (At-GWD), or phosphatase (At-SEX4), undigested starch was pelleted with a high-speed spin, the supernatant sugars were hydrolyzed via acid hydrolysis and glucose content was measured.
To observe how GWDs can be utilized to enhance starch utilization, native Arabidopsis starch was first treated with combinations of BAM3, ISA3, St-GWD, and At-SEX4. a high-speed spin was performed to remove the undigested starch, any remaining oligo-saccharides were hydrolyzed, and glucose released into the supernatant was measured (FIG. 7). Glucose was only released upon addition of amylases.
Native Arabidopsis starch was treated with combinations of BAM3, ISA3, StGWD, and AtSEX4, performed a high-speed spin to remove the undigested starch, hydrolyzed any remaining oligo-saccharides, and measured glucose released into the supernatant (FIG. 7). Glucose was only released upon addition of amylases, as expected.

As to `OC[C@H]1O[C@H](O[C@H]2[C@H](O)[C@@H](O)C(O)O[C@@H]2CO)[C@H](O)[C@@H](O)[C@@H]1O` (some centres unmarked) [maltose], the “stabilization (change in Tm)” value in data set [1] (increasing concentration of oligosaccharide, negative control) is listed as “No stabilization”.
With `OC[C@H]1O[C@H](O[C@H]2[C@H](O)[C@@H](O)[C@@H](O[C@H]3[C@H](O)[C@@H](O)[C@@H](O[C@H]4[C@H](O)[C@@H](O)[C@@H](O[C@H]5[C@H](O)[C@@H](O)[C@@H](O[C@H]6[C@H](O)[C@@H](O)C(O)O[C@@H]6CO)O[C@@H]5CO)O[C@@H]4CO)O[C@@H]3CO)O[C@@H]2CO)[C@H](O)[C@@H](O)[C@@H]1O` (some centres unmarked) [maltohexaose], the Kd in data set [1] (change in Tm with increasing concentration of oligosaccharide, apparent dissociation constant) came out at 7 mM.

B1: CtCBM30-StGWD: chimera of Clostridium thermocellum CelJ CBM30 and StGWD dikinase domain (protein)
chain: MGHHHHHHMEQKLISEEDLTSASSASAETVAPEGYRKLLDVQIFKDSPVVGWSGSGMGELETIGDTLPVDTTVTYNGLPTLRLNVQTTVQSGWWISLLTLRGWNTHDLSQYVENGYLEFDIKGKEGGEDFVIGFRDKVYERVYGLEIDVTTVISNYVTVTTDWQHVKIPLRDLMKINNGFDPSSVTCLVFSKRYADPFTVWFSDIKITSEDNEKSAPAIKVGVQINPVSGLPSGFQDLLHFVLDHVEDKNVETLLERLLEAREELRPLLLKPNNRLKDLLFLDIALDSTVRTAVERGYEELNNANPEKIMYFISLVLENLALSVDDNEDLVYCLKGWNQALSMSNGGDNHWALFAKAVLDRTRLALASKAEWYHHLLQPSAEYLGSILGVDQWALNIFTEEIIRAGSAASLSSLLNRLDPVLRKTANLGSWQIISPVEAVGYVVVVDELLSVQNEIYEKPTILVAKSVKGEEEIPDGAVALITPDMPDVLSHVSVRARNGKVCFATCFDPNILADLQAKEGRILLLKPTPSDIIYSEVNEIELQSSSNLVEAETSATLRLVKKQFGGCYAISADEFTSEMVGAKSRNIAYLKGKVPSSVGIPTSVALPFGVFEKVLSDDINQGVAKELQILMKKLSEGDFSALGEIRTTVLDLSAPAQLVKELKEKMQGSGMPWPGDEGPKRWEQAWMAIKKVWASKWNERAYFSTRKVKLDHDYLCMAVLVQEIINADYAFVIHTTNPSSGDDSEIYAEVVRGLGETLVGAYPGRALSFICKKKDLNSPQVLGYPSKPIGLFIKRSIIFRSDSNGEDLEGYAGAGLYDSVPMDEEEKVVIDYSSDPLITDGNFRQTILSNIARAGHAIEELYGSPQDIEGVVRDGKIYVVQTRPQM
modifications: Chimeric Protein
notes: chimera of Clostridium thermocellum CelJ CBM30 and StGWD dikinase domain
Turning to B1, in data set [2], the phosphorylation of cellulose result is recorded as “robustly phosphorylated cellulose”.

B2: St-GWD: full length Solanum tuberosum glucan, water dikinase, amino acids 1-1464 (protein, listed as Solanum tuberosum)
chain: MSNSLGNNLLYQGFLTSTVLEHKSRISPPCVGGNSLFQQQVISKSPLSTEFRGNRLKVQKKKIPMEKKRAFSSSPHAVLTTDTSSELAEKFSLGGNIELQVDVRPPTSGDVSFVDFQVTNGSDKLFLHWGAVKFGKETWSLPNDRPDGTKVYKNKALRTPFVKSGSNSILRLEIRDTAIEAIEFLIYDEAHDKWIKNNGGNFRVKLSRKEIRGPDVSVPEELVQIQSYLRWERKGKQNYPPEKEKEEYEAARTVLQEEIARGASIQDIRARLTKTNDKSQSKEEPLHVTKSDIPDDLAQAQAYIRWEKAGKPNYPPEKQIEELEEARRELQLELEKGITLDELRKTITKGEIKTKVEKHLKRSSFAVERIQRKKRDFGHLINKYTSSPAVQVQKVLEEPPALSKIKLYAKEKEEQIDDPILNKKIFKVDDGELLVLVAKSSGKTKVHLATDLNQPITLHWALSKSPGEWMVPPSSILPPGSIILDKAAETPFSASSSDGLTSKVQSLDIVIEDGNFVGMPFVLLSGEKWIKNQGSDFYVGFSAASKLALKAAGDGSGTAKSLLDKIADMESEAQKSFMHRFNIAADLIEDATSAGELGFAGILVWMRFMATRQLIWNKNYNVKPREISKAQDRLTDLLQNAFTSHPQYREILRMIMSTVGRGGEGDVGQRIRDEILVIQRNNDCKGGMMQEWHQKLHNNTSPDDVVICQALIDYKSDFDLGVYWKTLNENGITKERLLSYDRAIHSEPNFRGDQKGGLLRDLGHYMRTLKAVHSGADLESAIANCMGYKTEGEGFMVGVQINPVSGLPSGFQDLLHFVLDHVEDKNVETLLERLLEAREELRPLLLKPNNRLKDLLFLDIALDSTVRTAVERGYEELNNANPEKIMYFISLVLENLALSVDDNEDLVYCLKGWNQALSMSNGGDNHWALFAKAVLDRTRLALASKAEWYHHLLQPSAEYLGSILGVDQWALNIFTEEIIRAGSAASLSSLLNRLDPVLRKTANLGSWQIISPVEAVGYVVVVDELLSVQNEIYEKPTILVAKSVKGEEEIPDGAVALITPDMPDVLSHVSVRARNGKVCFATCFDPNILADLQAKEGRILLLKPTPSDIIYSEVNEIELQSSSNLVEAETSATLRLVKKQFGGCYAISADEFTSEMVGAKSRNIAYLKGKVPSSVGIPTSVALPFGVFEKVLSDDINQGVAKELQILMKKLSEGDFSALGEIRTTVLDLSAPAQLVKELKEKMQGSGMPWPGDEGPKRWEQAWMAIKKVWASKWNERAYFSTRKVKLDHDYLCMAVLVQEIINADYAFVIHTTNPSSGDDSEIYAEVVRGLGETLVGAYPGRALSFICKKKDLNSPQVLGYPSKPIGLFIKRSIIFRSDSNGEDLEGYAGAGLYDSVPMDEEEKVVIDYSSDPLITDGNFRQTILSNIARAGHAIEELYGSPQDIEGVVRDGKIYVVQTRPQM
For B2, in data set [3], the “time the protein was stable” value is recorded as more than 1 WEEK. In addition, the “effect on glucose release when added to amylases” value in data set [4] was “almost doubled”.

B3: SEX4: Arabidopsis glucan phosphatase Starch EXcess4 (protein, UniProt Q9FEB5 55-379, looked up)
Phosphoglucan phosphatase …: SESKSSSEMSGVAKDEEKSDEYSQDMTQAMGAVLTYRHELGMNYNFIRPDLIVGSCLQTPEDVDKLRKIGVKTIFCLQQDPDLEYFGVDISSIQAYAKKYSDIQHIRCEIRDFDAFDLRMRLPAVVGTLYKAVKRNGGVTYVHCTAGMGRAPAVALTYMFWVQGYKLMEAHKLLMSKRSCFPKLDAIRNATIDILTGLKRKTVTLTLKDKGFSRVEISGLDIGWGQRIPLTLDKGTGFWILKRELPEGQFEYKYIIDGEWTHNEAEPFIGPNKDGHTNNYAKVVDDPTSVDGTTRERLSSEDPELLEEERSKLIQFLETCSEAEV
Regarding B3, in data set [4], the “effect on glucose release when added to amylases” value was “did not enhance glucose release on its own”. For the same molecule, the “effect on glucose release when used with AtGWD” value in data set [4] (amylases plus AtGWD plus SEX4 (full starch phosphorylation cycle)) is “more than doubling”. Besides, the “effect on glucose release when used with St-GWD” value in data set [4] (amylases plus St-GWD plus SEX4 (full starch phosphorylation cycle)) is “more than doubling”.
